Data reported in PMC10879702, “Host ZCCHC3 blocks HIV-1 infection and production through a dual mechanism”.

Assays:
[1] = tested on: GST-ZCCHC3 MF R168S (human); test: pull-down
[2] = tested on: GST-ZCCHC3 MF R168/247S (human); test: pull-down
[3] = tested on: GST-ZCCHC3 MF R247S (human); test: pull-down
[4] = target: T1, GST-ZCCHC3 MF (middle-fold domain) (human, UniProt Q9NUD5 159-334); test: pull-down; settings: protein: recombinant; tags: GST; hairpin
T1 sequence: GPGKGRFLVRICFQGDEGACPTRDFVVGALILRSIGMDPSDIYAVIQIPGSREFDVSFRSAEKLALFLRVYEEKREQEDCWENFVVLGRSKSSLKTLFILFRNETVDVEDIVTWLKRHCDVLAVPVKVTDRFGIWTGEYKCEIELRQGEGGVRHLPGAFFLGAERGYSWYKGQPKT

[5] = target: T1, GST-ZCCHC3 MF (middle-fold domain); test: pull-down; Pull-down: 20 mM Tris-HCl pH 7.4, 30 mM NaCl, 0.1 mM MgCl2, 1 mM DTT, RNase inhibitor, 10 min; EMSA: 40 mM Tris pH 8.0, 2 mM KCl, 1 mM MgCl2, 1% NP-40, 1 mM DTT, 25 C, 10 min; settings: protein: recombinant; tags: GST; hairpin

With HIV-1 5' LTR (R-U5) RNA the binding signal [1] was 50 % of WT, the binding signal [2] was 15 % of WT and the binding signal [3] was 50 % of WT.

UCUCUGGUUAGACCAGAUCUGAGCCUGGGAGCUCUCUGGCUAACUAGGGA (structured_RNA) [HIV-1 LTR SL1]: binds [4].

CCACUGCUUAAGCCUCAAUAAAGCUUGCCUUGAGUGCUCAAAGUAGUGU (structured_RNA) [HIV-1 LTR SL2]: binds [4].

CUAGAGAUCCCUCAGACCCUUUUAGUCAGUGUGGAAAAUCUCUAG (structured_RNA) [HIV-1 LTR SL3]: binds [5].
